Data from article PMC8865534.

Target: NHE1-ECL1-rIgG, the first extracellular loop of the ALV-J receptor NHE1 fused to rabbit IgG Fc (expressed in DF-1 cells) (chicken)

Substance: Env protein (envelope glycoprotein, gp85-gp37) of ALV-J strain TBC-J6, wild type (natural protein)
- reduction of ALV-J infection (p27 mRNA level by qPCR) of DF-1 cells transfected with 250 ng pCAGGS-env(wt) for 2 days; the receptor is the endogenous NHE1 of DF-1 cells: 91%
